Measured values taken from the supplement of paper PMC11875167.

Experiment: observed amide hydrogen exchange rate constant kobs (stretched exponential fit, FD-normalized) (s^-1); higher = faster H/D exchange (less protection)
Conditions: pH 3 (pH read); temperature: 20 °C; D2O: 88%
Method in brief: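 Exchange was started by placing Jurkat tryptic peptides in 88% D2O at pHread 3 and 20 °C, and was stopped with 0.23% formic acid at 13 times from 18 to 93,600 s. HDExaminer processed MS1 uptake from a Q-Exactive HF with no back-exchange correction, normalizing it to full-deuteration controls prepared for 24 h at 37 °C. The fit used a stretched single exponential with β = 0.8. The observed exchange rate constant kobs is defined as the rate from this fit.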

Substance	observed amide hydrogen exchange rate constant kobs
SSGPTSLFAVTVAPPGAR	0.000757
SSTPEEVK	0.00152
STAGDTHLGGEDFDNR	0.00417
STGGAPTFNVTVTK	0.000782
STTTGHLIYK	0.00173
SVETIK	0.000994
SVPTSTVFYPSDGVATEK	0.000911
SVTEQGAELSNEER	0.00228
SVVLMSHLGRPDGVPMPDK	0.00138
SYDVPPPPMEPDHPFYSNISK	0.00134
SYELPDGQVITIGNER	0.000908
TAFDEAIAELDTLNEDSYK	0.00156
TAFQEALDAAGDK	0.00172
TAMSTPHVAEPAENEQDEQDENGAEASADLR	0.00244
TATESFASDPILYRPVAVALDTK	0.000776
TDTGEPMGR	0.00239
TENLLGSYFPK	0.00102
TEWLDGK	0.00181
TFFSFPAVVAPFK	0.000546
TFNTSTGGLLLPSDTK	0.00131
TFVNITPAEVGVLVGK	0.000609
TGTAEMSSILEER	0.00127
TIAPALVSK	0.000597
TIGGGDDSFNTFFSETGAGK	0.00246

Substance	observed amide hydrogen exchange rate constant kobs
TIIPLISQCTPK	0.000921
TITLEVEPSDTIENVK	0.001
TLAQLNPESSLFIIASK	0.00061
TLFPLIEAK	0.000566
TLGILGLGR	0.00116
TLHPDLGTDK	0.00356
TLLGDGPVVTDPK	0.000938
TLNDELEIIEGMK	0.000994
TLSDYNIQK	0.00134
TLTIVDTGIGMTK	0.000986
TLVDIAK	0.000674
TLVLLMGK	0.000552
TSFFQALGITTK	0.00062
TSRPENAIIYNNNEDFQVGQAK	0.00112
TVALWDLR	0.000702
TVHAGEVGSAEVVK	0.00152
TVTNAVVTVPAYFNDSQR	0.000806
TYSYLTPDLWK	0.000805
VAASNIVQMK	0.000933
VAGQDGSVVQFK	0.00116
VALVYGQMNEPPGAR	0.00112
VAPEEHPVLLTEAPLNPK	0.00104
VAQLEQVYIR	0.001
VAVATPAK	0.000839

Substance	observed amide hydrogen exchange rate constant kobs
VAVLGASGGIGQPLSLLLK	0.000683
VDFNVPMK	0.000994
VDNDENEHQLSLR	0.00288
VDQIIMAK	0.00126
VEGTEPTTAFNLFVGNLNFNK	0.000826
VEIIANDQGNR	0.00189
VELFFK	0.000868
VELLLK	0.000604
VESQLIGK	0.00139
VETGVLKPGMVVTFAPVNVTTEVK	0.000574
VEVQYK	0.00112
VFEGNRPTNSIVFTK	0.000712
VFIGNLNTLVVK	0.000428
VFLAQK	0.00073
VFSGLVSTGLK	0.00112
VHIEIGPDGR	0.00136
VHLVGIDIFTGK	0.00113
VIGSGCNLDSAR	0.00116
VIHDNFGIVEGLMTTVHAITATQK	0.00116
VIPELNGK	0.00159
VLATVTKPVGGDK	0.000932
VLDFEHFLPMLQTVAK	0.000855
VLEQLTGQTPVFSK	0.00081
VLITTDLLAR	0.000753

Substance	observed amide hydrogen exchange rate constant kobs
VLLPEYGGTK	0.00144
VLNTNIDGR	0.00162
VLQALEGLK	0.00101
VLQATVVAVGSGSK	0.000618
VLSSIEQK	0.00109
VLTVINQTQK	0.00141
VMLGETNPADSKPGTIR	0.00166
VMVQPINLIFR	0.000387
VNFAMNVGK	0.000903
VPPPPPIAR	0.000659
VPSLVGSFIR	0.000779
VRVELSNGEK	0.00127
VSFELFADK	0.00165
VSHLLGINVTDFTR	0.00119
VSHVSTGGGASLELLEGK	0.000818
VTIAQGGVLPNIQAVLLPK	0.000495
VTLATLK	0.000759
VTLDWAK	0.00095
VTLTSEEEAR	0.00196
VTVITK	0.000489
VVDLLAPYAK	0.000767
VVLIGGKPDR	0.00162
VVSSIEQK	0.00104
VVVSGLPPSGSWQDLK	0.000996

Substance	observed amide hydrogen exchange rate constant kobs
VYALPEDLVEVNPK	0.0011
VYVGNLGNNGNK	0.00211
WTGMIIGPPR	0.000901
YAFVNWINK	0.00131
YAISMAR	0.00127
YALYDATYETK	0.00134
YAVLYQPLFDK	0.000677
YHTINGHNAEVR	0.00291
YHTSQSGDEMTSLSEYVSR	0.00202
YIDQEELNK	0.00207
YISPDQLADLYK	0.000916
YLAEFATGNDRK	0.0022
YLIPNATQPESK	0.000945
YLNFFTK	0.00107
YLPELMAEK	0.000924
YLTVAAVFR	0.000527
YNQLLR	0.000842
YPALHKPENQDIDWGALEGETR	0.0022
YPIEHGIITNWDDMEK	0.00172
YPSPFFVFGEK	0.000978
YTPSGQAGAAASESLFVSNHAY	0.00149
YYVTIIDAPGHR	0.00127
